Source: patent publication US20210238260

Assays:
[1] = target: Factor X (FX), P00742
[2] = target: Factor X, P00742
[3] = target: plasma purified human antithrombin III (AT-III), in complex with unfractionated heparin (UFH); assay: ratio of K0.5 for AT-III/UFH inhibition, variant over Catalyst Biosciences WT FIXa
[4] = target: T1, plasma purified human AT-III (antithrombin III), in complex with full-length unfractionated heparin (UFH); assay: ratio of K0.5 of the variant to K0.5 of Catalyst Biosciences WT FIXa, AT-III/UFH inhibition
[5] = target: T1, plasma purified human AT-III …; assay: ratio of K0.5 (lower-limit value) of the variant to K0.5 of Catalyst Biosciences WT FIXa, AT-III/UFH inhibition

Factor X, P00742, sequence (P00742 whole entry, looked up): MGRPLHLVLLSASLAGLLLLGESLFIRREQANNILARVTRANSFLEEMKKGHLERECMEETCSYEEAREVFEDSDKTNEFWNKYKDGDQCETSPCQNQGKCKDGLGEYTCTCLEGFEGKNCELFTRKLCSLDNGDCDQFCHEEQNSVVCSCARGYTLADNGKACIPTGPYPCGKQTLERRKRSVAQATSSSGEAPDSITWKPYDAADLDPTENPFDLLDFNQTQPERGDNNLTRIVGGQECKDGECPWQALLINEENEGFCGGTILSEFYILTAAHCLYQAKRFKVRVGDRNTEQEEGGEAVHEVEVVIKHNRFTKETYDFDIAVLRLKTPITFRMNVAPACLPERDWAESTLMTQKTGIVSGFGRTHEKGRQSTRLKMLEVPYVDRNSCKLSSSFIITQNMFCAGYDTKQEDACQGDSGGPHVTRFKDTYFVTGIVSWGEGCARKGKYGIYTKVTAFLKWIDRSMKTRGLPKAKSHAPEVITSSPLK
Factor X (FX), P00742, sequence (P00742 whole entry, looked up): as above

| Protein | KM [1] [µM] | kcat of FX activation by FIXa (Xase complex with FVIIIa, PC/PS vesicles, Ca2+) [1] [s⁻¹] | % of WT kcat/KM [2] [%] | kcat [2] [s⁻¹] | kcat/KM [2] [M⁻¹ s⁻¹] | K0.5-mut/K0.5-wt [3] [fold] | K0.5-mut/K0.5-wt [4] | K0.5-mut/K0.5-wt [5] |
| --- | --- | --- | --- | --- | --- | --- | --- | --- |
| FIXa-Y155F/K247N/N249S/N260S (protein) chain 1: YNSGKLEEFVQGNLERECMEEKCSFEEAREVFENTERTTEFWKQYVDGDQCESNPCLNGGSCKDDINSYECWCPFGFEGKNCELDVTCNIKNGRCEQFCKNSADNKVVCSCTEGYRLAENQKSCEPAVPFPCGRVSVSQTSKLTR chain 2: VVGGEDAKPGQFPWQVVLNGKVDAFCGGSIVNEKWIVTAAHCVETGVKITVVAGEHNIEETEHTEQNRSVIRIIPHHNYSAAINKYNHDIALLELDEPLVLNSYVTPICIADKEYTNIFLKFGSGYVSGWGRVFHKGRSALVLQYLRVPLVDRATCLRSTKFTIYNNMFCAGFHEGGRDSCQGDSGGPHVTEVEGTSFLTGIISWGEECAMKGKYGIYTKVSRYVNWIKEKTKLT | 0.0965 | 1.8 | 43 | 1.8 | 1.9e+07 | 7.9 |  |  |
| FIXa variant D104N/K106S/K247N/N249S/N260S (mature FIX numbering) (protein) chain 1: YNSGKLEEFVQGNLERECMEEKCSFEEAREVFENTERTTEFWKQYVDGDQCESNPCLNGGSCKDDINSYECWCPFGFEGKNCELDVTCNIKNGRCEQFCKNSANNSVVCSCTEGYRLAENQKSCEPAVPFPCGRVSVSQTSKLTR chain 2: VVGGEDAKPGQFPWQVVLNGKVDAFCGGSIVNEKWIVTAAHCVETGVKITVVAGEHNIEETEHTEQNRSVIRIIPHHNYSAAINKYNHDIALLELDEPLVLNSYVTPICIADKEYTNIFLKFGSGYVSGWGRVFHKGRSALVLQYLRVPLVDRATCLRSTKFTIYNNMFCAGFHEGGRDSCQGDSGGPHVTEVEGTSFLTGIISWGEECAMKGKYGIYTKVSRYVNWIKEKTKLT |  |  |  |  |  |  | 65.3 |  |
| FIXa variant K247N/N249S/N260S (mature FIX numbering) (protein) chain 1: YNSGKLEEFVQGNLERECMEEKCSFEEAREVFENTERTTEFWKQYVDGDQCESNPCLNGGSCKDDINSYECWCPFGFEGKNCELDVTCNIKNGRCEQFCKNSADNKVVCSCTEGYRLAENQKSCEPAVPFPCGRVSVSQTSKLTR chain 2: VVGGEDAKPGQFPWQVVLNGKVDAFCGGSIVNEKWIVTAAHCVETGVKITVVAGEHNIEETEHTEQNRSVIRIIPHHNYSAAINKYNHDIALLELDEPLVLNSYVTPICIADKEYTNIFLKFGSGYVSGWGRVFHKGRSALVLQYLRVPLVDRATCLRSTKFTIYNNMFCAGFHEGGRDSCQGDSGGPHVTEVEGTSFLTGIISWGEECAMKGKYGIYTKVSRYVNWIKEKTKLT |  |  |  |  |  |  | 8.1 |  |
| FIXa variant R318Y/R338E/T343R/N346Y/R403E/E410N (mature FIX numbering) (protein) chain 1: YNSGKLEEFVQGNLERECMEEKCSFEEAREVFENTERTTEFWKQYVDGDQCESNPCLNGGSCKDDINSYECWCPFGFEGKNCELDVTCNIKNGRCEQFCKNSADNKVVCSCTEGYRLAENQKSCEPAVPFPCGRVSVSQTSKLTR chain 2: VVGGEDAKPGQFPWQVVLNGKVDAFCGGSIVNEKWIVTAAHCVETGVKITVVAGEHNIEETEHTEQKRNVIRIIPHHNYNAAINKYNHDIALLELDEPLVLNSYVTPICIADKEYTNIFLKFGSGYVSGWGRVFHKGYSALVLQYLRVPLVDRATCLESTKFRIYYNMFCAGFHEGGRDSCQGDSGGPHVTEVEGTSFLTGIISWGEECAMKGKYGIYTKVSEYVNWIKNKTKLT |  |  |  |  |  |  |  | 517 |
| FIXa variant Y155F/K247N/N249S/N260S (mature FIX numbering) (protein) chain 1: YNSGKLEEFVQGNLERECMEEKCSFEEAREVFENTERTTEFWKQYVDGDQCESNPCLNGGSCKDDINSYECWCPFGFEGKNCELDVTCNIKNGRCEQFCKNSADNKVVCSCTEGYRLAENQKSCEPAVPFPCGRVSVSQTSKLTR chain 2: VVGGEDAKPGQFPWQVVLNGKVDAFCGGSIVNEKWIVTAAHCVETGVKITVVAGEHNIEETEHTEQNRSVIRIIPHHNYSAAINKYNHDIALLELDEPLVLNSYVTPICIADKEYTNIFLKFGSGYVSGWGRVFHKGRSALVLQYLRVPLVDRATCLRSTKFTIYNNMFCAGFHEGGRDSCQGDSGGPHVTEVEGTSFLTGIISWGEECAMKGKYGIYTKVSRYVNWIKEKTKLT |  |  |  |  |  |  | 7.9 |  |
| FIXa-K247N/N249S/N260S (protein) chain 1: YNSGKLEEFVQGNLERECMEEKCSFEEAREVFENTERTTEFWKQYVDGDQCESNPCLNGGSCKDDINSYECWCPFGFEGKNCELDVTCNIKNGRCEQFCKNSADNKVVCSCTEGYRLAENQKSCEPAVPFPCGRVSVSQTSKLTR chain 2: VVGGEDAKPGQFPWQVVLNGKVDAFCGGSIVNEKWIVTAAHCVETGVKITVVAGEHNIEETEHTEQNRSVIRIIPHHNYSAAINKYNHDIALLELDEPLVLNSYVTPICIADKEYTNIFLKFGSGYVSGWGRVFHKGRSALVLQYLRVPLVDRATCLRSTKFTIYNNMFCAGFHEGGRDSCQGDSGGPHVTEVEGTSFLTGIISWGEECAMKGKYGIYTKVSRYVNWIKEKTKLT | 0.114 | 3.3 |  |  |  | 8.1 |  |  |
| FIXa variant D104N/K106S/Y155F/K247N/N249S/N260S (mature FIX numbering) (protein) chain 1: YNSGKLEEFVQGNLERECMEEKCSFEEAREVFENTERTTEFWKQYVDGDQCESNPCLNGGSCKDDINSYECWCPFGFEGKNCELDVTCNIKNGRCEQFCKNSANNSVVCSCTEGYRLAENQKSCEPAVPFPCGRVSVSQTSKLTR chain 2: VVGGEDAKPGQFPWQVVLNGKVDAFCGGSIVNEKWIVTAAHCVETGVKITVVAGEHNIEETEHTEQNRSVIRIIPHHNYSAAINKYNHDIALLELDEPLVLNSYVTPICIADKEYTNIFLKFGSGYVSGWGRVFHKGRSALVLQYLRVPLVDRATCLRSTKFTIYNNMFCAGFHEGGRDSCQGDSGGPHVTEVEGTSFLTGIISWGEECAMKGKYGIYTKVSRYVNWIKEKTKLT |  |  |  |  |  |  | 35.8 |  |
| FIXa variant R318Y/R338E/T343R/N346D/R403E/E410N (mature FIX numbering) (protein) chain 1: YNSGKLEEFVQGNLERECMEEKCSFEEAREVFENTERTTEFWKQYVDGDQCESNPCLNGGSCKDDINSYECWCPFGFEGKNCELDVTCNIKNGRCEQFCKNSADNKVVCSCTEGYRLAENQKSCEPAVPFPCGRVSVSQTSKLTR chain 2: VVGGEDAKPGQFPWQVVLNGKVDAFCGGSIVNEKWIVTAAHCVETGVKITVVAGEHNIEETEHTEQKRNVIRIIPHHNYNAAINKYNHDIALLELDEPLVLNSYVTPICIADKEYTNIFLKFGSGYVSGWGRVFHKGYSALVLQYLRVPLVDRATCLESTKFRIYDNMFCAGFHEGGRDSCQGDSGGPHVTEVEGTSFLTGIISWGEECAMKGKYGIYTKVSEYVNWIKNKTKLT |  |  |  |  |  |  |  | 517 |
| FIXa variant R318Y/R338E/Y345A/R403E/E410N (mature FIX numbering) (protein) chain 1: YNSGKLEEFVQGNLERECMEEKCSFEEAREVFENTERTTEFWKQYVDGDQCESNPCLNGGSCKDDINSYECWCPFGFEGKNCELDVTCNIKNGRCEQFCKNSADNKVVCSCTEGYRLAENQKSCEPAVPFPCGRVSVSQTSKLTR chain 2: VVGGEDAKPGQFPWQVVLNGKVDAFCGGSIVNEKWIVTAAHCVETGVKITVVAGEHNIEETEHTEQKRNVIRIIPHHNYNAAINKYNHDIALLELDEPLVLNSYVTPICIADKEYTNIFLKFGSGYVSGWGRVFHKGYSALVLQYLRVPLVDRATCLESTKFTIANNMFCAGFHEGGRDSCQGDSGGPHVTEVEGTSFLTGIISWGEECAMKGKYGIYTKVSEYVNWIKNKTKLT |  |  |  |  |  |  |  | 517 |
| FIXa-D104N/K106S/Y155F/K247N/N249S/N260S (protein) chain 1: YNSGKLEEFVQGNLERECMEEKCSFEEAREVFENTERTTEFWKQYVDGDQCESNPCLNGGSCKDDINSYECWCPFGFEGKNCELDVTCNIKNGRCEQFCKNSANNSVVCSCTEGYRLAENQKSCEPAVPFPCGRVSVSQTSKLTR chain 2: VVGGEDAKPGQFPWQVVLNGKVDAFCGGSIVNEKWIVTAAHCVETGVKITVVAGEHNIEETEHTEQNRSVIRIIPHHNYSAAINKYNHDIALLELDEPLVLNSYVTPICIADKEYTNIFLKFGSGYVSGWGRVFHKGRSALVLQYLRVPLVDRATCLRSTKFTIYNNMFCAGFHEGGRDSCQGDSGGPHVTEVEGTSFLTGIISWGEECAMKGKYGIYTKVSRYVNWIKEKTKLT | 0.0685 | 0.5 | 18 | 0.5 | 8.2e+06 | 35.8 |  |  |
| FIXa variant R318Y/R338E/Y345A/N346D/R403E/E410N (mature FIX numbering) (protein) chain 1: YNSGKLEEFVQGNLERECMEEKCSFEEAREVFENTERTTEFWKQYVDGDQCESNPCLNGGSCKDDINSYECWCPFGFEGKNCELDVTCNIKNGRCEQFCKNSADNKVVCSCTEGYRLAENQKSCEPAVPFPCGRVSVSQTSKLTR chain 2: VVGGEDAKPGQFPWQVVLNGKVDAFCGGSIVNEKWIVTAAHCVETGVKITVVAGEHNIEETEHTEQKRNVIRIIPHHNYNAAINKYNHDIALLELDEPLVLNSYVTPICIADKEYTNIFLKFGSGYVSGWGRVFHKGYSALVLQYLRVPLVDRATCLESTKFTIADNMFCAGFHEGGRDSCQGDSGGPHVTEVEGTSFLTGIISWGEECAMKGKYGIYTKVSEYVNWIKNKTKLT |  |  |  |  |  |  |  | 517 |
| FIXa-K247N/N249S/N260S/R318Y/R338E/R403E/E410N (protein) chain 1: YNSGKLEEFVQGNLERECMEEKCSFEEAREVFENTERTTEFWKQYVDGDQCESNPCLNGGSCKDDINSYECWCPFGFEGKNCELDVTCNIKNGRCEQFCKNSADNKVVCSCTEGYRLAENQKSCEPAVPFPCGRVSVSQTSKLTR chain 2: VVGGEDAKPGQFPWQVVLNGKVDAFCGGSIVNEKWIVTAAHCVETGVKITVVAGEHNIEETEHTEQNRSVIRIIPHHNYSAAINKYNHDIALLELDEPLVLNSYVTPICIADKEYTNIFLKFGSGYVSGWGRVFHKGYSALVLQYLRVPLVDRATCLESTKFTIYNNMFCAGFHEGGRDSCQGDSGGPHVTEVEGTSFLTGIISWGEECAMKGKYGIYTKVSEYVNWIKNKTKLT | 0.0622 | 3.4 | 217 | 6 | 9.7e+07 | 288 |  |  |
| FIXa-D104N/K106S/K247N/N249S/N260S (protein) chain 1: YNSGKLEEFVQGNLERECMEEKCSFEEAREVFENTERTTEFWKQYVDGDQCESNPCLNGGSCKDDINSYECWCPFGFEGKNCELDVTCNIKNGRCEQFCKNSANNSVVCSCTEGYRLAENQKSCEPAVPFPCGRVSVSQTSKLTR chain 2: VVGGEDAKPGQFPWQVVLNGKVDAFCGGSIVNEKWIVTAAHCVETGVKITVVAGEHNIEETEHTEQNRSVIRIIPHHNYSAAINKYNHDIALLELDEPLVLNSYVTPICIADKEYTNIFLKFGSGYVSGWGRVFHKGRSALVLQYLRVPLVDRATCLRSTKFTIYNNMFCAGFHEGGRDSCQGDSGGPHVTEVEGTSFLTGIISWGEECAMKGKYGIYTKVSRYVNWIKEKTKLT | 0.0612 | 0.6 | 22 | 0.6 | 9.8e+06 | 65.3 |  |  |
